{"source": "patent US20250388669A1", "about": "(published 2025)", "key": {"PD-L1 [1]": {"molecular_target": "T1, PD-L1 (human, UniProt Q9NZQ7 19-238, limits assumed)", "T1 construct": "In the reporter assay it is on Raji cells expressing human PD-L1", "test": "PD-L1 binding, FCM or ELISA", "T1 sequence (Q9NZQ7 19-238 limits assumed)": "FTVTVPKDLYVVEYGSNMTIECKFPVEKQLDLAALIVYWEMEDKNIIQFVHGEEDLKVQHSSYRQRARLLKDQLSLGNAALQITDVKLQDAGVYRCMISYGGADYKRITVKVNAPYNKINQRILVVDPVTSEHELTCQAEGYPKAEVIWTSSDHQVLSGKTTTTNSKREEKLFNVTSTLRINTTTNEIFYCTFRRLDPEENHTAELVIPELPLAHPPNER"}, "CD137 (binding assay)": {"molecular_target": "CD137 (binding assay) (UniProt Q07011 24-186, limits assumed)", "test": "FCM or ELISA, graded"}, "PD-1 (binding assay)": {"molecular_target": "PD-1 (binding assay) (UniProt Q15116 25-167, limits assumed)", "sequence (Q15116 25-167 limits assumed)": "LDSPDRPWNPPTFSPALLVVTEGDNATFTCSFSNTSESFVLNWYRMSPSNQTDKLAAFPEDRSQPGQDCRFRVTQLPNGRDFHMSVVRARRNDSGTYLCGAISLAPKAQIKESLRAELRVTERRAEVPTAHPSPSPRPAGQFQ", "test": "FCM or ELISA, graded"}, "CD40": {"molecular_target": "CD40 (UniProt P25942 21-193, limits assumed)", "sequence (P25942 21-193 limits assumed)": "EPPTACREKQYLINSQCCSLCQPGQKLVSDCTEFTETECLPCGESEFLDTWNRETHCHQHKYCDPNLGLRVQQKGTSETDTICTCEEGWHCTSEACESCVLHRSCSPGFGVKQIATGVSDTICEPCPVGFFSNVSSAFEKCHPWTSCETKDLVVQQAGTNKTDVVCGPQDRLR", "test": "FCM or ELISA, graded"}, "PD-L1 (binding assay)": {"molecular_target": "PD-L1 (binding assay) (UniProt Q9NZQ7 19-238, limits assumed)", "sequence (Q9NZQ7 19-238 limits assumed)": "as the sequence (Q9NZQ7 19-238 limits assumed) above", "test": "FCM or ELISA, graded"}, "PD-L1 [2]": {"molecular_target": "T2, PD-L1 (human, UniProt Q9NZQ7 19-238, limits assumed)", "T2 construct": "The reporter assay used Raji cells expressing human PD-L1", "test": "PD-L1 binding (FIG. 14A; method not specified); reference antibody", "T2 sequence (Q9NZQ7 19-238 limits assumed)": "as above"}}}
{"binder": "Ly076 (antibody, V domains shown, Parent mAb; also called Anti-PD-L1 Ly076; parent anti-PD-L1 antibody) VH: QVQLVQSGAEVKKPGASVKVSCKASGYTFTDFWMSWVRQAPGQGLEWMGQIYPNTGTTHSNEKFKGRVTMTRDTSTSTVYMELSSLRSEDTAVYYCARSYHISTTPNWFAYWGQGTLVTVSS VL: DIQMTQSPSSLSASVGDRVTITCKASQNVYKKLEWYQQKPGKVPKVLIYHTNILQTGVPSRFSGSGSGTDYTLTISSLQPEDVATYYCYQWNSGPTFGGGTKVEIK", "values": [{"measurement": "binding result", "setting": "PD-L1 [1]", "result": "binds"}]}
{"binder": "Ly2396 (bispecific antibody, human IgG1, kappa, PD-1 Fabs (Ly516) x terminal CD137 Fv) heavy 1: QVTLKESGPALVKPTQTLTLTCTFSGFSLSTSGTCVSWIRQPPGKALEWLATICWEDSKGYNPSLKSRLTISKDTSKNQAVLTMTNMDPVDTATYYCARREDSGYFWFPYWGQGTLVTVSSASTKGPSVFPLAPSSKSTSGGTAALGCLVKDYFPEPVTVSWNSGALTSGVHTFPAVLQSSGLYSLSSVVTVPSSSLGTQTYICNVNHKPSNTKVDKKVEPKSCDKTHTCPPCPAPEAAGPSVFLFPPKPKDTLMISRTPEVTCVVVDVSHEDPEVKFNWYVDGVEVHNAKTKPREEQYNSTYRVVSVLTVLHQDWLNGKEYKCKVSNKALPAPIEKTISKAKGQPREPQVYTLPPSREEMTKNQVSLWCLVKGFYPSDIAVEWESNGQPENNYKTTPPVLDSDGSFFLYSKLTVDKSRWQQGNVFSCSVMHEALHNHYTQKSLSLSPGGGGGSGGGGSGGGGSGGGGSQVQLVQSGAEVKKPGASVKVSCKASGYTFAGFEMHWVRQAPGQGLEWMGAIDPKTGGTDYNQKFKDRVTMTRDTSISTAYMELSRLRSDDTAVYYCARDLGYFDVWGQGTLVTVSS heavy 2: QVTLKESGPALVKPTQTLTLTCTFSGFSLSTSGTCVSWIRQPPGKALEWLATICWEDSKGYNPSLKSRLTISKDTSKNQAVLTMTNMDPVDTATYYCARREDSGYFWFPYWGQGTLVTVSSASTKGPSVFPLAPSSKSTSGGTAALGCLVKDYFPEPVTVSWNSGALTSGVHTFPAVLQSSGLYSLSSVVTVPSSSLGTQTYICNVNHKPSNTKVDKKVEPKSCDKTHTCPPCPAPEAAGPSVFLFPPKPKDTLMISRTPEVTCVVVDVSHEDPEVKFNWYVDGVEVHNAKTKPREEQYNSTYRVVSVLTVLHQDWLNGKEYKCKVSNKALPAPIEKTISKAKGQPREPQVYTLPPSREEMTKNQVSLSCAVKGFYPSDIAVEWESNGQPENNYKTTPPVLDSDGSFFLVSKLTVDKSRWQQGNVFSCSVMHEALHNRFTQKSLSLSPGGGGGSGGGGSGGGGSGGGGSDIQMTQSPSSLSASVGDRVTITCRASQDIRSNLNWYQQKPGGAVKLLIYYTSRLHSGVPSRFSGSGSGTDYTLTISSLQPEDFATYFCQQSEKLPRTFGGGTKVEIR light: NIQMTQSPSSLSASVGDRVTITCKAGQNVNNYLAWYQQKPGKAPKVLIFNANSLQTGVPSRFSGSGSGTDFTLTISSLQPEDFATYYCQQYNSWPTFGGGTKVEIKRTVAAPSVFIFPPSDEQLKSGTASVVCLLNNFYPREAKVQWKVDNALQSGNSQESVTEQDSKDSTYSLSSTLTLSKADYEKHKVYACEVTHQGLSSPVTKSFNRGEC", "values": [{"measurement": "binding result", "setting": "CD137 (binding assay)", "result": "binds"}, {"measurement": "binding result", "setting": "PD-1 (binding assay)", "result": "binds"}]}
{"binder": "Ly2444 (bispecific antibody, human IgG1, kappa, PD-L1 Fabs (Ly076) x terminal CD40 Fv (TM559)) heavy 1: QVQLVQSGAEVKKPGASVKVSCKASGYTFTDFWMSWVRQAPGQGLEWMGQIYPNTGTTHSNEKFKGRVTMTRDTSTSTVYMELSSLRSEDTAVYYCARSYHISTTPNWFAYWGQGTLVTVSSASTKGPSVFPLAPSSKSTSGGTAALGCLVKDYFPEPVTVSWNSGALTSGVHTFPAVLQSSGLYSLSSVVTVPSSSLGTQTYICNVNHKPSNTKVDKKVEPKSCDKTHTCPPCPAPEAAGPSVFLFPPKPKDTLMISRTPEVTCVVVDVSHEDPEVKFNWYVDGVEVHNAKTKPREEQYNSTYRVVSVLTVLHQDWLNGKEYKCKVSNKALPAPIEKTISKAKGQPREPQVYTLPPSREEMTKNQVSLWCLVKGFYPSDIAVEWESNGQPENNYKTTPPVLDSDGSFFLYSKLTVDKSRWQQGNVFSCSVMHEALHNHYTQKSLSLSPGGGGGSGGGGSGGGGSGGGGSEVQLVESGGGLVQPGGSLRLSCAASGFTFTNYGLHWVRQAPGKGLEWVSSISPSGGVTYYRDSVKGRFTISRDNSKNTLYLQMNSLRAEDTAVYYCAKPFLGWGGANWIAHWGQGTLVTVSS heavy 2: QVQLVQSGAEVKKPGASVKVSCKASGYTFTDFWMSWVRQAPGQGLEWMGQIYPNTGTTHSNEKFKGRVTMTRDTSTSTVYMELSSLRSEDTAVYYCARSYHISTTPNWFAYWGQGTLVTVSSASTKGPSVFPLAPSSKSTSGGTAALGCLVKDYFPEPVTVSWNSGALTSGVHTFPAVLQSSGLYSLSSVVTVPSSSLGTQTYICNVNHKPSNTKVDKKVEPKSCDKTHTCPPCPAPEAAGPSVFLFPPKPKDTLMISRTPEVTCVVVDVSHEDPEVKFNWYVDGVEVHNAKTKPREEQYNSTYRVVSVLTVLHQDWLNGKEYKCKVSNKALPAPIEKTISKAKGQPREPQVYTLPPSREEMTKNQVSLSCAVKGFYPSDIAVEWESNGQPENNYKTTPPVLDSDGSFFLVSKLTVDKSRWQQGNVFSCSVMHEALHNRFTQKSLSLSPGGGGGSGGGGSGGGGSGGGGSDIQMTQSPSSLSASVGDRVTITCLASEDISNDLAWYQQKPGKAPKLLIYFVDRLLDGVPSRFSGSGSGTDFTLTISSLQPEDFATYYCQQSYKYPPTFGQGTKLEIK light: DIQMTQSPSSLSASVGDRVTITCKASQNVYKKLEWYQQKPGKVPKVLIYHTNILQTGVPSRFSGSGSGTDYTLTISSLQPEDVATYYCYQWNSGPTFGGGTKVEIKRTVAAPSVFIFPPSDEQLKSGTASVVCLLNNFYPREAKVQWKVDNALQSGNSQESVTEQDSKDSTYSLSSTLTLSKADYEKHKVYACEVTHQGLSSPVTKSFNRGEC", "values": [{"measurement": "binding result", "setting": "CD40", "result": "binds"}, {"measurement": "binding result", "setting": "PD-L1 (binding assay)", "result": "binds"}]}
{"binder": "Ly076 (antibody, V domains shown, Parent mAb; also called parent anti-PD-L1 antibody) VH: QVQLVQSGAEVKKPGASVKVSCKASGYTFTDFWMSWVRQAPGQGLEWMGQIYPNTGTTHSNEKFKGRVTMTRDTSTSTVYMELSSLRSEDTAVYYCARSYHISTTPNWFAYWGQGTLVTVSS VL: DIQMTQSPSSLSASVGDRVTITCKASQNVYKKLEWYQQKPGKVPKVLIYHTNILQTGVPSRFSGSGSGTDYTLTISSLQPEDVATYYCYQWNSGPTFGGGTKVEIK", "values": [{"measurement": "binding result", "setting": "PD-L1 [2]", "result": "binds"}]}
